According to the supplement of paper PMC6757056:
± gives the standard deviation of the averaged measurements.

B1: library; a variant is named by its letters at N, in order (parent)
chain: GCUGUCACCGAGAAACUGUGAAGUAUAUCUUAAACCUGGGCACUUAAAAGAUAUAUGGAGUUAGUAGUGCAACCUGCUCGGUCUGAUGAGUCCNNNNNNGGACGAAACAGC

Experiments:
cyclic di-GMP [1] = variants of: B1; test: normalized RNA/DNA level without ligand (relative to sTRSVctl = 100) (log10 (% of sTRSVctl)); HEK293T; ligand: cyclic di-GMP (c-di-GMP-II aptamer); higher = less ribozyme self-cleavage, higher mRNA level; conditions: reporter: mCherry (pCS4076), ligand present: no
Outline: (§1)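 Only sequences with at least 100 DNA reads were analyzed, from HEK293T cells transfected with 4 µg per 6-well well of ribozyme switch library plasmids 72 h before RNA extraction with EDTA. Any ligand was added 1 h before transfection. RNA level was defined as RNA over DNA reads, normalized to a spiked-in non-cleaving sequence or to the top sequences, then scaled and log-transformed. The top set was 25 sequences, and the scaling was ×100 followed by log10.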

cyclic di-GMP [2] = variants of: B1; test: normalized RNA/DNA level with ligand (relative to sTRSVctl = 100) (log10 (% of sTRSVctl)); HEK293T; ligand: cyclic di-GMP (c-di-GMP-II aptamer); ligand concentration (+) RNA-Seq: 1 mM; higher = less ribozyme self-cleavage, higher mRNA level; conditions: reporter: mCherry (pCS4076), ligand present: yes
Outline: as §1

| Variant | normalized RNA/DNA level without ligand (log10) (cyclic di-GMP [1]) | normalized RNA/DNA level with ligand (log10) (cyclic di-GMP [2]) |
| --- | --- | --- |
| UUCAGA | 1.7 ± 0.084 | 1.81 ± 0.069 |
| UUCAGC | 1.78 ± 0.082 | 1.9 ± 0.13 |
| UUCUGC | 1.784 ± 0.003 | 1.92 ± 0.08 |
| UUCUGG | 1.79 ± 0.04 | 1.89 ± 0.085 |
| UUCUGU | 1.7281 ± 0.00073 | 1.86 ± 0.1 |
| UUCUGA | 1.73 ± 0.023 | 1.83 ± 0.046 |
| GUCGCC | 1.77 ± 0.036 | 1.89 ± 0.12 |
| GUCGCA | 1.77 ± 0.021 | 1.86 ± 0.09 |
| GUGAAC | 1.5 ± 0.08 | 1.69 ± 0.13 |
| UUCCCA | 1.79 ± 0.07 | 1.92 ± 0.12 |
| UUCCCC | 1.84 ± 0.053 | 1.94 ± 0.14 |
| UUCCCG | 1.85 ± 0.1 | 1.94 ± 0.13 |
| UUCCCU | 1.766 ± 0.012 | 1.89 ± 0.048 |
| GUCAGC | 1.67 ± 0.017 | 1.83 ± 0.17 |
| GUCAGU | 1.63 ± 0.022 | 1.77 ± 0.15 |
| GUCGUU | 1.61 ± 0.017 | 1.8 ± 0.14 |
| GUCGUA | 1.63 ± 0.073 | 1.78 ± 0.095 |
| GUCGUC | 1.67 ± 0.036 | 1.78 ± 0.11 |
| GUCGUG | 1.62 ± 0.041 | 1.79 ± 0.1 |
| CUCAGU | 1.75 ± 0.018 | 1.83 ± 0.07 |
| CUCAGG | 1.8 ± 0.037 | 1.87 ± 0.14 |
| CUCAGC | 1.76 ± 0.076 | 1.89 ± 0.13 |
| CUGAGC | 1.76 ± 0.033 | 1.87 ± 0.12 |
| CUGAGG | 1.73 ± 0.031 | 1.88 ± 0.16 |
| CUGAGA | 1.46 ± 0.079 | 1.69 ± 0.11 |
| CUCGGU | 1.79 ± 0.021 | 1.89 ± 0.16 |
| CUCGGG | 1.76 ± 0.031 | 1.88 ± 0.085 |
| CUCGGC | 1.797 ± 0.0073 | 1.9 ± 0.088 |
| GUGAGU | 1.59 ± 0.053 | 1.77 ± 0.11 |
